Changes are numbered by the printed parent chain. Names and notes keep the numbering of the source.
B1: M103205H795-SG171 / M103202L889-SK1 (antibody, human IgG1, kappa, name in EU numbering)
heavy: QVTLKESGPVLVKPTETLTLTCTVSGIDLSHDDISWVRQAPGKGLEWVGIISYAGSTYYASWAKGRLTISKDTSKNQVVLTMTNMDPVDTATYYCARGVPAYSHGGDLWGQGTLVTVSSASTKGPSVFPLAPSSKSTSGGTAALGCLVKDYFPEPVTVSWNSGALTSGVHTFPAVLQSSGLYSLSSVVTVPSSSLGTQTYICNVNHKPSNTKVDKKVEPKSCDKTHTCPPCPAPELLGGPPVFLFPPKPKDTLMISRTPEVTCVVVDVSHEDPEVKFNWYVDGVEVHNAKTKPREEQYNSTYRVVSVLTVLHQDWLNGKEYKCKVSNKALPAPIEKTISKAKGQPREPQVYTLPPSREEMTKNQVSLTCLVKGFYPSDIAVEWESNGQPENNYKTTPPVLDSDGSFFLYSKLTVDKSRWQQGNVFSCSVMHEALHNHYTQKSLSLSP
light: DIVMTQSPATLSLSPGERATLSCTSSQSVYHANWLSWFQQKPGQPPKLLIYWASTLAYGVPSRFSGSGSGTDFTLTISSLQPEDAATYYCAGGYGGGRYAFGQGTKVEIKRTVAAPSVFIFPPSDEQLKSGTASVVCLLNNFYPREAKVQWKVDNALQSGNSQESVTEQDSKDSTYSLSSTLTLSKADYEKHKVYACEVTHQGLSSPVTKSFNRGEC
notes: also called S239P
B2: M103205H795-SG175 / M103202L889-SK1 (antibody, human IgG1, kappa, name in EU numbering)
heavy: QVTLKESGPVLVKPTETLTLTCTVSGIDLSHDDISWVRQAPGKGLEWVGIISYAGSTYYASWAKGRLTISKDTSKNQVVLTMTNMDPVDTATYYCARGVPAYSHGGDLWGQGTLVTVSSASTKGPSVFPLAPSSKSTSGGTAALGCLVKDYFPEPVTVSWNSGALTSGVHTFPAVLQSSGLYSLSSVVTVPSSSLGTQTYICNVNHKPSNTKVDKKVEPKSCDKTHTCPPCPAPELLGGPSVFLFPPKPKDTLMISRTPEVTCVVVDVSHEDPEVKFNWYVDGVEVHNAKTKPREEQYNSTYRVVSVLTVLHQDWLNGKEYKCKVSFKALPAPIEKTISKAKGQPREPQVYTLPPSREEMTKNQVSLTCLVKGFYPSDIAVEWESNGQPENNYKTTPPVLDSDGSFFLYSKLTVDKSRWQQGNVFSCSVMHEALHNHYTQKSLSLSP
light: B1 light
notes: also called N325F
B3: M103205H795-MY201/M103202L889-SK1 (antibody, human IgG1, kappa)
heavy: QVTLKESGPVLVKPTETLTLTCTVSGIDLSHDDISWVRQAPGKGLEWVGIISYAGSTYYASWAKGRLTISKDTSKNQVVLTMTNMDPVDTATYYCARGVPAYSHGGDLWGQGTLVTVSSASTKGPSVFPLAPSSKSTSGGTAALGCLVKDYFPEPVTVSWNSGALTSGVHTFPAVLQSSGLYSLSSVVTVPSSSLGTQTYICNVNHKPSNTKVDKKVEPKSCDKTHTCPPCPAPELLNGPSVFLFPPKPKDTLMISRTPEVTCVVVDVSDEDPEVKFNWYVDGVEVHNAKTKPREEQYNSTYRVVSVLTVLHQDWLNGKEYKCKVSNKALPKPIEKTISKAKGQPREPQVYTLPPSREEMTKNQVSLTCLVKGFYPSDIAVEWESNGQPENNYKTTPPVLDSDGSFFLYSKLTVDKSRWQQGNVFSCSVMHEALHNHYTQKSLSLSP
light: B1 light
notes: Fc variant of MS1032LO06-SG1; also called MS1032LO06-MY201
B4: GpH7-B3 L235W / GpL16-k0 (antibody, human IgG1, kappa)
heavy: not shown
light: DIVMTQSPLSLPVTPGEPASISCQASESLVHSNRNTYLHWYLQKPGQSPQLLIYKVSNRFSGVPDRFSGSGSGTDFTLKISRVEAEDVGVYYCSQNTHVPPTFGQGTKVEIERTVAAPSVFIFPPSDEQLKSGTASVVCLLNNFYPREAKVQWKVDNALQSGNSQESVTEQDSKDSTYSLSSTLTLSKADYEKHKVYACEVTHQGLSSPVTKSFNRGEC
notes: also called B3 variant L235W
B5: GpH7-B3 K334I / GpL16-k0 (antibody, human IgG1, kappa)
heavy: not shown
light: B4 light
notes: also called B3 variant K334I
B6: GpH7-B3 S239N / GpL16-k0 (antibody, human IgG1, kappa)
heavy: not shown
light: B4 light
notes: also called B3 variant S239N
B7: GpH7-B3 S239I / GpL16-k0 (antibody, human IgG1, kappa)
heavy: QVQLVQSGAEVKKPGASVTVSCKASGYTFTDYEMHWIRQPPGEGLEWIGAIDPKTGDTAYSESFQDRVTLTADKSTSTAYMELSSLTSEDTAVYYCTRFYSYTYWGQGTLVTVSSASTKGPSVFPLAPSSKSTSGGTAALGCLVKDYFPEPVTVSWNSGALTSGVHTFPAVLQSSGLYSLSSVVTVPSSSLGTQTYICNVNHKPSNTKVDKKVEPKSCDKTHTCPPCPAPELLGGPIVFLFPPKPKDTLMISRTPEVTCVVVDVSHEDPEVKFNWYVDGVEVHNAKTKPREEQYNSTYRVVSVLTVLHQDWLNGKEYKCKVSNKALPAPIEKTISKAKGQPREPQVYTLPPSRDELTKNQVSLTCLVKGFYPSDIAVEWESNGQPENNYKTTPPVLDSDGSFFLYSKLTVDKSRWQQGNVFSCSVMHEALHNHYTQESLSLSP
light: B4 light
notes: also called B3 variant S239I
B8: GpH7-B3 S239V / GpL16-k0 (antibody, human IgG1, kappa)
heavy: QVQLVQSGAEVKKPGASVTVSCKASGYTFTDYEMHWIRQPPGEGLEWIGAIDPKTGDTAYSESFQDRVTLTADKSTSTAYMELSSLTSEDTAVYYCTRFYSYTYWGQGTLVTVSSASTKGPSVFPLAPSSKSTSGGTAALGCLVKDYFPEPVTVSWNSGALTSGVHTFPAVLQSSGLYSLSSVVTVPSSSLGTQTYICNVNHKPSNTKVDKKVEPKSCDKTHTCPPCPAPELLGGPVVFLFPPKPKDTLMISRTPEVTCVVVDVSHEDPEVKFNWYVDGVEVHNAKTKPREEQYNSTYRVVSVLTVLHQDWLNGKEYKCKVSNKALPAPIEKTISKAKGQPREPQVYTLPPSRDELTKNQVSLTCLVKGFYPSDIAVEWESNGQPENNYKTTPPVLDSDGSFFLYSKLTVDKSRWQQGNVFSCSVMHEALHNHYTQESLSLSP
light: B4 light
notes: also called B3 variant S239V
B9: GpH7-B3 S298L / GpL16-k0 (antibody, human IgG1, kappa)
heavy: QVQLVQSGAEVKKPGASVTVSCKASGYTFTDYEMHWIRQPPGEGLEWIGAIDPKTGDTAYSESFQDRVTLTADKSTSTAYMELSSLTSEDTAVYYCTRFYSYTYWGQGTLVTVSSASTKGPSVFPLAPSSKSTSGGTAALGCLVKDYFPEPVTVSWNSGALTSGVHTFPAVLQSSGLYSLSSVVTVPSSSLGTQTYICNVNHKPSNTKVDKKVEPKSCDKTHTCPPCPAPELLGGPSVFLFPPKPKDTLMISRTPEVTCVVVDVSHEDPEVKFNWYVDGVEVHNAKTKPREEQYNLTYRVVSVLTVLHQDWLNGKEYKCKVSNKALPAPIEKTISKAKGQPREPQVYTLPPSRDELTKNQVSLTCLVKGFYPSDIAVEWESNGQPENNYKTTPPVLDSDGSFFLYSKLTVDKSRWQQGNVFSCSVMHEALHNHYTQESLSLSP
light: B4 light
notes: also called B3 variant S298L
B10: GpH7-B3 P271G / GpL16-k0 (antibody, human IgG1, kappa)
heavy: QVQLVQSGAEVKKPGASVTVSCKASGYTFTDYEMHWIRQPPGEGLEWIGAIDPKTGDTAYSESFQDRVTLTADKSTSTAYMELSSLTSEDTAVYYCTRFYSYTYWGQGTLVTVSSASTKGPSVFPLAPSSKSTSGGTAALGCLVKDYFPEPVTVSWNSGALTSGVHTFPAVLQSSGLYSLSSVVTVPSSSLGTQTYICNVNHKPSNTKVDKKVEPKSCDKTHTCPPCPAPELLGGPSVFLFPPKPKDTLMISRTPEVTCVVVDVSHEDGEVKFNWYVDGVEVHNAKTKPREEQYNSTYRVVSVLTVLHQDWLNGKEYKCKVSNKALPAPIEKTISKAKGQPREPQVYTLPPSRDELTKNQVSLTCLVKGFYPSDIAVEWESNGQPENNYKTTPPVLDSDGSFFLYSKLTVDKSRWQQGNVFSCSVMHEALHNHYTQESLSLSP
light: B4 light
notes: also called B3 variant P271G
B11: GpH7-B3 S267A / GpL16-k0 (antibody, human IgG1, kappa)
heavy: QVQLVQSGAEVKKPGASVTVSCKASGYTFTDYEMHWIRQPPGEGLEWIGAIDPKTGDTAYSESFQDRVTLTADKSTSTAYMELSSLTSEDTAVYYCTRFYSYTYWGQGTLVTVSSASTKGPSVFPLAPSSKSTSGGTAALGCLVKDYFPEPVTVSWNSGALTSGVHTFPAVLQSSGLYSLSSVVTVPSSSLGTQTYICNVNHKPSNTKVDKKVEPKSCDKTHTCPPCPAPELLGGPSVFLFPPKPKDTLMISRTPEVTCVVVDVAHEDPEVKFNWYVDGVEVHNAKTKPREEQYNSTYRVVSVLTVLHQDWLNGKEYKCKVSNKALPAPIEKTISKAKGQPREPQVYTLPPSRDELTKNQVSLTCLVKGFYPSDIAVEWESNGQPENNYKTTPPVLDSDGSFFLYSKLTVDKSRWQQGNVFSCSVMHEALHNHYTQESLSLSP
light: B4 light
notes: also called B3 variant S267A
B12: GpH7-B3 L328T / GpL16-k0 (antibody, human IgG1, kappa)
heavy: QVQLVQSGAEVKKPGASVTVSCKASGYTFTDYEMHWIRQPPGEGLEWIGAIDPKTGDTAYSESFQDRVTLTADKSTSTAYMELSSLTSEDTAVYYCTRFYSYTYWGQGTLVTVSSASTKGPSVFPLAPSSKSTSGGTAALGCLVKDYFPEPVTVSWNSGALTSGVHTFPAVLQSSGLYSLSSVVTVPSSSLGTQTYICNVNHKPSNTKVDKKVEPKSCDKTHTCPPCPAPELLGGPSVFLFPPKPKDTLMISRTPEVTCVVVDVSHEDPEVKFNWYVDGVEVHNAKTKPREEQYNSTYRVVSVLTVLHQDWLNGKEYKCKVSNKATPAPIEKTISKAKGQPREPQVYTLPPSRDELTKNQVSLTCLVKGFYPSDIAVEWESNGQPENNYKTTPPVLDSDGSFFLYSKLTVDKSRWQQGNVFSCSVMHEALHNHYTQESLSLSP
light: B4 light
notes: also called B3 variant L328T
B13: GpH7-B3 P331E / GpL16-k0 (antibody, human IgG1, kappa)
heavy: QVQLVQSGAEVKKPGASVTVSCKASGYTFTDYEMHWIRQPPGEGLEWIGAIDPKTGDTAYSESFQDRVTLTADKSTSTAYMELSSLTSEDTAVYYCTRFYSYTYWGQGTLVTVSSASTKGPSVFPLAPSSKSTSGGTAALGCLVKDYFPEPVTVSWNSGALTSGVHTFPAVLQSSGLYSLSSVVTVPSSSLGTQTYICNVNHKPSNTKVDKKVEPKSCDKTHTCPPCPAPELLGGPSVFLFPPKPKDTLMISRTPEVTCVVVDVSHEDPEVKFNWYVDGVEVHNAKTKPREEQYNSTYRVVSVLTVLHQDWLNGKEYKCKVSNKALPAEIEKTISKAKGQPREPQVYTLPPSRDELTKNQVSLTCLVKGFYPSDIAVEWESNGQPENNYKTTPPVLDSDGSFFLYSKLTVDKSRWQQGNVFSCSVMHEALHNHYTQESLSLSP
light: B4 light
notes: also called B3 variant P331E
B14: GpH7-B3 Q295L / GpL16-k0 (antibody, human IgG1, kappa)
heavy: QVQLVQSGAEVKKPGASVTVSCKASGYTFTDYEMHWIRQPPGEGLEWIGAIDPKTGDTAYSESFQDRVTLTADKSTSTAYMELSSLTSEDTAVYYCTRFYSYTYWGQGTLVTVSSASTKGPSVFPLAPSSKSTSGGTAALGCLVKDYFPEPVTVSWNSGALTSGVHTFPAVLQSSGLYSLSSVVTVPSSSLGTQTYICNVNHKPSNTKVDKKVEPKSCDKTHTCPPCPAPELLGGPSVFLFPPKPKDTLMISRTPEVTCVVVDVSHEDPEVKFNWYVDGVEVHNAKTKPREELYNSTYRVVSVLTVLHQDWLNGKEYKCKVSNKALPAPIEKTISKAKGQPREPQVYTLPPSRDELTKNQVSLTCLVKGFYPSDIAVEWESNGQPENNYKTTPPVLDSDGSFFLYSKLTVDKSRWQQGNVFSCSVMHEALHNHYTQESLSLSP
light: B4 light
notes: also called B3 variant Q295L
B15: M103205H795-MY205/M103202L889-SK1 (antibody, human IgG1, kappa)
heavy: B3 heavy with Q297L
light: B1 light
notes: also called MS1032LO06-MY205
B16: M103205H795-MY201/M103202L889-SK1 (antibody, human IgG1, kappa)
heavy: B3 heavy
light: B1 light
notes: also called MS1032LO06-MY201

Target: T1, cynomolgus monkey FcγRIIa1 extracellular domain, His-tagged (cynomolgus monkey)
T1 construct: also called cyno FcgRIIa1
T1 chain: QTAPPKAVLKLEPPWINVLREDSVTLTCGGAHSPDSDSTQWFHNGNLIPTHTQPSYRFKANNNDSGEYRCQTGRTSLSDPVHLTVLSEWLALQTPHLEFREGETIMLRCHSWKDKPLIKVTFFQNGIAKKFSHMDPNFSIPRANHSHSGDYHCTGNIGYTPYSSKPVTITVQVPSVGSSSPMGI
Assay: SPR (Biacore), 25C, FcgR bound per antibody captured
Method: (§1) In the next step, cross-reactivity of these substitutions to cynoFcγRs was evaluated.
(§2) The value of the amount of FcγR binding was obtained by dividing the amount of FcγR bound by the amount of each antibody captured.

| Binder | Binding to cynoFcgRs (SG1 = 100) |
| --- | --- |
| B1 | 17 |
| B2 | 13 |

Target: T2, cynomolgus monkey FcγRIIb extracellular domain, His-tagged (cynomolgus monkey)
T2 construct: also called cyno FcgRIIb
T2 chain: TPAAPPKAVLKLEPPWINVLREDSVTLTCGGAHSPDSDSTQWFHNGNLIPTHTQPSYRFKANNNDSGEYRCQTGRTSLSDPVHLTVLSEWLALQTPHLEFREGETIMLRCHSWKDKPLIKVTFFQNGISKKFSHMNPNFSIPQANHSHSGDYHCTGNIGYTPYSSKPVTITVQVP
Assay: as above
Method: as §1, §2

| Binder | Binding to cynoFcgRs (SG1 = 100) |
| --- | --- |
| B1 | 20 |
| B2 | 14 |

Target: T3, cynomolgus monkey FcγRIIa3 extracellular domain, His-tagged (cynomolgus monkey)
T3 construct: also called cyno FcgRIIa3
T3 chain: T1 chain with P95T, T121A, A128S, H133P, D135N
Assay: as above
Method: as §1, §2

| Binder | Binding to cynoFcgRs (SG1 = 100) |
| --- | --- |
| B1 | 18 |
| B2 | 17 |

Target: T4, cynomolgus monkey FcγRIIa2 extracellular domain, His-tagged (cynomolgus monkey)
T4 construct: also called cyno FcgRIIa2
T4 chain: T1 chain with P95T, T121A, I127K, A128S, K130N, D135N, R142Q
Assay: as above
Method: as §1, §2

| Binder | Binding to cynoFcgRs (SG1 = 100) |
| --- | --- |
| B1 | 20 |
| B2 | 13 |

Target: T5, cynomolgus monkey FcγRIIa3 extracellular domain with C-terminal His-tag (cynomolgus monkey)
T5 construct: also called cyno FcgRIIa3; cynoFcγRIIa3; not shown: His-tag added to the C-terminus
T5 chain: T1 chain with P95T, T121A, A128S, H133P, D135N
Assay: SPR (BIACORE), antibody captured, FcgR analyte
Method: (§3) The kinetic analysis of interactions between these antibodies and FcγR was carried out using BIACORE® T200 or BIACORE® 4000 (GE Healthcare). HBS-EP+ (GE Healthcare) was used as the running buffer, and the measurement temperature was set to 25° C. […] After the measurement, the antibody captured on the chip was washed off by allowing reaction with 10 mM glycine-HCl, pH1.5 and 25 mM NaOH so that the chip was regenerated and used repeatedly. The sensorgrams obtained as measurement results were analyzed by the 1:1 Langmuir binding model using the BIACORE® Evaluation Software to calculate the binding rate constant ka (L/mol/s) and dissociation rate constant kd (1/s), and the dissociation constant KD (mol/L) was calculated from these values. […] Regarding such interactions, KD values were calculated using the following 1:1 binding model described in BIACORE® T100 Software Handbook BR1006-48 Edition AE.

| Binder | Kd |
| --- | --- |
| B3 | 5.9 µM |

target: T6, human FcγRIIb extracellular domain, His-tagged (human, UniProt P31994 43-217); assay: SPR (Biacore), 25C, FcgR bound per antibody captured
T6 construct: also called human FcgRIIb
T6 sequence: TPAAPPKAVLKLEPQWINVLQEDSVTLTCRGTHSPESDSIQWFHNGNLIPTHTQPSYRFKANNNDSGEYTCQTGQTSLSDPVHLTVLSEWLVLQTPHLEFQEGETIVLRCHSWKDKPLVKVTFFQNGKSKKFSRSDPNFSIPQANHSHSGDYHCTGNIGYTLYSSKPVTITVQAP

| Binder | Binding to human FcgRs (parent B3 = 100) |
| --- | --- |
| B4 | 130 |
| B5 | 174 |
| B6 | 124 |
| B7 | 108 |
| B8 | 107 |
| B9 | 114 |
| B10 | 252 |
| B11 | 283 |
| B12 | 179 |
| B13 | 100 |
| B14 | 156 |

Target: T7, human FcγRIIaR extracellular domain, His-tagged (human, UniProt P12318 34-217)
T7 construct: also called human FcgRIIaR; FcγRIIa type R
T7 chain: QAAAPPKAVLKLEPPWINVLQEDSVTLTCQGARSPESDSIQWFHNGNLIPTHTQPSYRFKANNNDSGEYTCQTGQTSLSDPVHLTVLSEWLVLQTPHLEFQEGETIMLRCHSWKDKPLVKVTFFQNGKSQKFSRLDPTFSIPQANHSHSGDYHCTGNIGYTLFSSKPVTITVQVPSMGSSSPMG
Assay: as above

| Binder | Binding to human FcgRs (parent B3 = 100) |
| --- | --- |
| B4 | 128 |
| B5 | 137 |
| B6 | 80 |
| B7 | 75 |
| B8 | 71 |
| B9 | 71 |
| B10 | 130 |
| B11 | 125 |
| B12 | 135 |
| B13 | 67 |
| B14 | 148 |

target: T8, human FcγRIIIaV extracellular domain, His-tagged (human, UniProt P08637 17-208); assay: as above
T8 construct: also called human FcgRIIIaV
T8 sequence (P08637 17-208 F176V): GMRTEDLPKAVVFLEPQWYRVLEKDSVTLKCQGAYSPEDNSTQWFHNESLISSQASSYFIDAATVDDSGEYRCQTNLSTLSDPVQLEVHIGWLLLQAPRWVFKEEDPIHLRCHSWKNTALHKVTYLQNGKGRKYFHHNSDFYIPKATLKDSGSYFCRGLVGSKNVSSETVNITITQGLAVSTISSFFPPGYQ

| Binder | Binding to human FcgRs (parent B3 = 100) |
| --- | --- |
| B4 | 40 |
| B5 | 187 |
| B6 | 111 |
| B7 | 47 |
| B8 | 48 |
| B9 | 51 |
| B10 | 93 |
| B11 | 145 |
| B12 | 53 |
| B13 | 46 |
| B14 | 135 |

target: T9, human FcγRIIaH extracellular domain, His-tagged (human, UniProt P12318 34-217); assay: as above
T9 construct: also called human FcgRIIaH; FcγRIIa type H
T9 sequence: T7 chain with R134H

| Binder | Binding to human FcgRs (parent B3 = 100) |
| --- | --- |
| B4 | 136 |
| B5 | 169 |
| B6 | 99 |
| B7 | 82 |
| B8 | 79 |
| B9 | 99 |
| B10 | 152 |
| B11 | 176 |
| B12 | 156 |
| B13 | 96 |
| B14 | 128 |

target: T10, cynomolgus monkey FcγRIIIaS extracellular domain with C-terminal His-tag (cynomolgus monkey, UniProt A3RFZ7 21-206 (rhesus entry)); assay: SPR Biacore, antibody captured, FcgR analyte
T10 construct: also called cyno FcgRIIIaS; cynoFcγRIIIaS; not shown: His-tag added to C-terminus
T10 sequence (A3RFZ7 21-206): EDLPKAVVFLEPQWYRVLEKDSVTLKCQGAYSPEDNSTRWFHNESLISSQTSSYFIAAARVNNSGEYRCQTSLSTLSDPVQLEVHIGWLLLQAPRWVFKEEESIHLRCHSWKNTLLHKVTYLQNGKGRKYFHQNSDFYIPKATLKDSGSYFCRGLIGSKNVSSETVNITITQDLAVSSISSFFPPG
Method: as §3

| Binder | KD fold (SG1 = 1) |
| --- | --- |
| B15 | 0.08 fold |

target: T11, human FcγRIIb extracellular domain with C-terminal His-tag (human, UniProt P31994 43-217); assay: SPR Biacore, antibody captured, FcgR analyte
T11 construct: also called human FcgRIIb; not shown: His-tag added to C-terminus
T11 sequence: T6 sequence
Method: as §3

| Binder | KD fold (SG1 = 1) |
| --- | --- |
| B16 | 4.7 fold |
| B15 | 8.7 fold |
